Data from patent US20240116987A1 (UNIVERSIT CATHOLIQUE DE LOUVAIN, published 2024).
Ends that are not written are not given here.

Columns and labels:
[1] = target: T1, LDH-Htr (truncated human LDH-H, dimeric) (human, UniProt A5A6N7 21-334 (Pan troglodytes entry)); assay: MST, labelled LDH-Htr 100 nM, 1.5 s on time, n=3
T1 construct: Recombinant from E. coli; Mainly a dimer, in equilibrium with a weak tetramer; In MST it was labelled with Red-dye-NHS and used at 100 nM; also called hLDH-Htr; truncated LDH-H; not shown: N-terminal 6-His tag from pET-28a (NdeI site)
T1 sequence (A5A6N7 21-334): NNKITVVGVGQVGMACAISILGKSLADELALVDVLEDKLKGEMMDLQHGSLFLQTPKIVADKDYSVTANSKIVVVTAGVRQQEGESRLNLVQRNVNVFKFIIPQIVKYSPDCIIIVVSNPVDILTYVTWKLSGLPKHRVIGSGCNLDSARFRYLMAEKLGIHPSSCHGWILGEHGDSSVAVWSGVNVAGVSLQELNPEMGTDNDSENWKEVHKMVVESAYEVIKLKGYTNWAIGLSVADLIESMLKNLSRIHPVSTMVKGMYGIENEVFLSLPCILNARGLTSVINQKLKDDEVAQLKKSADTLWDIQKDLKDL
Protocol: MST measurements were performed on a Nanotemper® Monolith NT.115 instrument (NanoTemper Technologies®) using Red-dye-NHS fluorescent labelling. […] Measurements were performed in 50 mM sodium phosphate, pH 7.6, and 100 mM NaCl containing 0.01% Tween-20 in standard-treated capillaries (NanoTemper Technologies®). The final concentration of proteins in the assay was 100 nM. Ligands were titrated in 1:1 dilutions following manufacturer's recommendations. Experiments were performed in triplicates using 40% LED power, high MST power, […] and Laser off time 3 s. Poypeptides were evaluated for their thermophoretic pattern, and Kd's were extracted from raw data at a 1.5 s MST on time following the manufacturer's instructions.

[2] = target: LDH-5 (tetramer of human LDH-M subunits, LDH-M4) (human, UniProt P00338 2-332); assay: cell-based or functional assay

Kd [1]	Binder	EC50 of ΔTm (NanoDSF destabilization) of tetrameric LDH-5 (300 nM) [2]
156 µM	LEDKLKGEMMDLQHGSLFLQTP-NH2 (Synthetic peptide bought from Genecust; also called "cluster B1"-derived polypeptide) [polypeptide LP-22]	
240 µM	Ac-GEMMDLQHGSLFLQTP-NH2 (Synthetic peptide bought from Genecust) [polypeptide GP-16]	262 µM
